Assay: yeast display, Sf9 membrane polyspecificity reagent, FACS + sequencing; frameworks hold sequencing errors
Method in brief: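 Nanobodies came from a synthetic yeast display library in Saccharomyces cerevisiae BJ5465, induced with galactose for 36–48 hours and stained for 1 hour at 4 °C with 10% biotinylated, detergent-solubilized Sf9 membrane reagent. Cells were enriched on streptavidin microbeads and then FACS-sorted, with low and high (top ~1%) gates set on anti-HA fluorescence for expression and streptavidin fluorescence for reagent binding. Each polyreactivity label reflects the gate a clone came from. Genes were amplified by colony PCR, sequenced by MiSeq 2 × 250 and filtered by CDR length.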

Row | Sequence | polyreactivity (PSR sort gate)
1 | QVQLVESGGGLVQAGGSLRLSCAASGSTQYPYAMGWYRQAPGKERELDAAISWSGGSTYYADSVKGRFTISRDPAQNTVYLQMNSLNPEDTAVYYCAAVYHFQYGAYDYWGQGTQVTVSS | high polyreactivity
2 | QVQLVESGGGLVQAGGSLRLSCAASGSTFQTNAMGWYRQAPGKERELVAGIRWRGGSTYYADSVKGRFTISRDNAKNTVYLQMNSLKPEDSAVYYCAAYYLWHHYLFDYWGQGTQVTVSS | high polyreactivity
3 | QVQLVESGGGLVQAGGSLRLSCAASGGTFIVYAMGWYRQAPGKERELVAAITYSGGSTYYADSVKGRFTISRDNAKNTVYLQMNSLKPEVTAVYYCAARPFVSSWLQYAEGGDYWGQGTQVTVSS | low polyreactivity
4 | QVQLVESGGGLVQAGGSLRLSCAASGSTVGSYAMGWYRQAPGKERELVAAITLRTDSTYYADSVKGRFTISRDNAKNTVYLQMNSLKPEETAVYYCARRYRYGYDYWGQGTQVTVSS | low polyreactivity
5 | QVHLVESGVGLVQAGGSLRLSCAAYGSTCGWYAMGWYRQAPGKERELVASITWDGGRTYYADSVKGRFTISRDNAKNTVYLQMISQKPEDTAVYYCAARGVSSPLNYWGQGNQVTVSS | low polyreactivity
6 | QVQLVESGGGLVQAGGSLRLSCAASGSIFRYNAMGWYRQAPGKERELVAVITSTGSTSYADSVKGRFTISRDNAKNTVYLQMNSLKPEDTAVYYCAATRERHYSYQYLVPYYYWGQGTQVTVSS | high polyreactivity
7 | QVQLVESGGGLVQAGGSLRLSCAASGRIFVGYAMGWYRQAPGKERELVAAINRSGSSTYYADSVKGRFTISRDNAKNTVYLQTNSLKPEDTAVYYCAVRPLYDRRYTAVRRYDYWGQGTQVTVSS | high polyreactivity
8 | QVQLVESGGGLVQAGGSLRLSCAASGIIFWYYAMVWYRHAPGKERELVASISGTGGTTYYADSVKGRFTISRDNAKNTVYLQMNSLKPEDTAVYDCSALSGQHDYDYWGQGTQVTVSS | low polyreactivity
9 | QVQLVESGGGLVQAGGSLRLSCAASGSIFKRNAMGWYRQAPGKERELVASISSGGSTHYADSVKGRFTNSRDNAKNTVYLQMNSLKPEDTAVYYCAATSIRWSVGSFRRDYWGQVTQVTVSS | low polyreactivity
10 | QVQLVDSGGGLVQAGGSLRLSCDASGSILAQYAMGWYRQAPGKEREFVAAISRRGVRTNYADSVKGRFTISRDNAKNTDYLQMNSLKHEDTAVYYCAAALYTPSLNSAFDYWGQGTQVTVSS | high polyreactivity
11 | QVQLVESGGGFVQAGGSLRLSCAASGRTFRYYAMGWYIQAPGKERELVASISSSGARTYYADSVKGRFTISRDNAKNTVYLQMNSLNPDDTAVYYCNARYSTTYYGTIYRGMDYWGQGTQVTVSS | high polyreactivity
12 | QVQLVESGGGLVQAGGSLRLSCAASGFIFKRYSMGWYRQAPGKERELVAAITSGGSTHYADSVKGRFTISRDNAKNTVYLQMNSLKPEDTAVYYCATRRYKWGVRYDYWGQGTQVTVSS | high polyreactivity
13 | QVQLVESGGGLVQAGGSHRLSCAASGRTFPYYAMGWYRQAPGKERELVAAITRGVRTHYADSVKGRFTISRDNAKNTVYLQMNSLKPEDTAVYYCAREDWGSYSDMDSWGQGTQVTVSS | low polyreactivity
14 | QVQLVESGGGLVQAGGSLRLSCAASGSIFGTNTMGWYRQAAGKERVLVAAIRLSDSSTYYADSVKGRFTISRDNAKKTVYLQMNSLKPGDTAVYYCAVDYRAYHYYRYDYWGQGTQVTVSS | low polyreactivity
15 | QVQLVESGGGLVQAGGSLRLTCAASGSIFFYYTMGWYRQAPGKERELVAAISVGGSTYYADSVKGRFTISRDNAKNTVYLQMNSLKPEDTAVYYCNAVPAKGYVTVVRYYYWGQGTQVTVSS | low polyreactivity
16 | QVQLVESGGGLVQAGGSLRLSCAASGSIFKTNAMGWYRQAPGKERELVAAIYRSDGTDYADSVKGRFTISRDNAKNTVYLQMNSLKPEDTAVYYCNADKWSVVGYVLGFYRDDYWGQGSQVTVSS | low polyreactivity
17 | QVQLVESGVGLVQARGSLPLSCAASGFIFNTMGWYRQAPGKERELVATISWSDGSTYYADSVKGRFTISRDNAKNTVYLQMNTLKPEDTAVYYCAATTDALVGRPRYDYWGQGTQVTVSS | low polyreactivity
18 | QVQLVESGGGLVQAGGSLRLSCAASGRIFGWYSMGWYRQAPGKERELVAAISSNGGSTYYADSVKGRFTISRDNAKNTVYLQMNSLKPEDTAVYFCAAVRVFQYKYDRFNYWGQGTQVTVSS | high polyreactivity
19 | QVQLVESGGGLVQAGGSLRLSCAASGSTFGGYAMGWYRQAPGKERELVAAISSSGGITYYADSVKGRFTISRDNAKNTVYLQMNSLKPEDTAVYYCAAPLGGGARWGRWWLYDSWGQGTQVTVSS | low polyreactivity
20 | QVQLVESGGGLVQAGGSLRLSCAASGRIFPWNPMGWYRQAPGKERELVAGINNGDRTYYADSVKGRFTISRDNAKNTVYLQMNSLKPEDTAVYYCAVDTWYFLFQYGYYQEGDYWGQGTQVTVSS | low polyreactivity
21 | QVQLVETGGGLVQAGGSLRLSCAASGRTLYYYAMGWYRQAPGKERELVAAITRSGGSTYYADSVKGRFTISRDNAKNTVYLQMNSLKPEDTEVYYCNKYGYKGGVGYDYWGQGTQVTVSS | high polyreactivity
22 | QVQLVESGVGLVQAGGSLRLSCAASGSTFWAYAMGWYRQAPGKERELVAAITTGGGRTFYADSVKGRFTISRDNAKNTVYLQMNSLKPEETAVYYFAAVSQSYRMYYWGQGTQVTVSS | low polyreactivity

Row | Sequence | polyreactivity (PSR sort gate)
23 | QVQLVESGGGLVQAGGSLRLSCAASGSIFDYNAMGWYRQAPGKEREYVAANTWGSGSTYYADSVKGRFTNSRDNAKNTVYLQMNSLKPEDTAVYYCNADDYGGSTGRKGRYNYWGQGTQVTVSS | low polyreactivity
24 | QVHLVESGGGLVQAGGSLRLSCAASGSTFFYYAMGWYRQAPGKERELVAAISNSGGNTFYADSVKGRFTISRDNAKNTVYLQMNSLKPEDTAVYYCAADEIGHFQWRDGDYWGQGTQVTVSS | low polyreactivity
25 | QVHLVESGGGLVQAGASHRLSCAASGSISKSYAMGWYRQAPGKERELVAAISWRGGSTYADSVKGRFTISRDNAKNTVYLQMNSLKPEDTAVYYCAATNYGTFWVGQSERYDYWGQGTQVNVSS | low polyreactivity
26 | QVQLVESGGGLVQAGGSLRLSCAPSGGTFYSYAMGWYRQAPGKESELVAAISRRGASTYYADSVKGRFTISRDNAKNNVYLQMNSLKPEDTAGYYCAAKGRSYGVTRMYYWGQGTQVTVSS | high polyreactivity
27 | QVQHVESGGGLVQAGGSLRLSCASSGSIFYFYAKGWYRQAPGKERELVAAISWSGGSTYYADSVKGRFTISRDNAKNTFYLQMNSLKPEDTAVYYCNAADYWYWENDYWGQGTQVTVSS | low polyreactivity
28 | QVQLVESGGGLVQAGGSLRISCDASGSIFELNAMGWYRQAPGKERELVAAISSGSTYYADSVKGRFTITRDNAKNTVYLQMNSLKPVDTAVYYCAKRWRRRFVDVWSLYDYWGQCTQVTVSS | low polyreactivity
29 | QGQLVESGGGLVQAGGSLRLSCAASGYTFNYNTMGWYRQAPGKVRELVAAINTSGSTYYADSVKGRFTISRDNAKNTVYLQMNSLKPEDTAVYYCAVRVAYKYNYWGQGTQVTVSS | high polyreactivity
30 | QVQLVESGGGLVQAGGSLRLSCAASGGTIVGYAMGWYRQAPGKERELVAAIDSSGGSTYYADSVKGRFTISRDNAKNTVYLQMNSLKPEDTAVYYCAALSTNYYISPYYYYNSKGYDYWGQGTQVTVSS | high polyreactivity
31 | QVQLVESGGGLVQAGGSLRLSCAASGFIFRYYAMGWYRQEPGKERELFAAISSTGGSTSYADSVKGRFTISRDNAKNTVYLQMNSLKPEDTAVYYCAADYWIRRRTYGQLYRPYYYWGQGTQVTVSS | high polyreactivity
32 | QVQLVESGGGLVQAGGSLRLSCAASGSTFVKNVMGWYRQAPGKERELVAGITRGGSTYYADSVKGRFTISRDNAKNTVYLQMNSLKPEDTAVYYCNRVRYPSYDYWGQGTQVTVSS | high polyreactivity
33 | QVQLVESGGGLVQAGGSLRLSCAASGFTFRANAMGWYRQAPGKERELVAAISQSGGRTYYADSVKGRFTISRDNAKNTVYLQMNSLKPEDTAVYYCAAPYSAKELYYRMDYWGQGTQVTVSS | high polyreactivity
34 | QVQLVESGGGIVQAGGSLRLSCAASGYTYPRYTMGWYRQAPGKERELVAVIRRSGGTHYADSVKGRFTISRDNAKNTVYLHMNRLKPEETAVYYCAVVSFLPNIPYGYWGQGTQVTVSS | high polyreactivity
35 | QVQLVESGVGLVQAGGSLRLSCAASGSTFWLYAMGWYRQAPGKERELVASISSRGGSTYYADSVKGRFTISRDNAKNTVYLQMNSLKPEDTAVYYCAAKDIRYDDDYWGQGTQVTVSS | low polyreactivity
36 | QVQLVESGGGLVQAGGSLRLSCAASGRIFGFNMGWYRQAPGKERELVAAINSGGGTYYADSVKGLFTISRDNAKNTVYLQMNSLKPEYTAVYYCNARFRFRLGQYRYDYWGQGTQVTVSS | high polyreactivity
37 | QVQLVESGGGLVQAGGSLRLSCAASGRTFTYNVMGWYRQAPGKERELVAAISSGGGTISADSVKGRFTISRDNAKHTVYLQMNSLKPEDTAVYYCAAKYAWRLLEMYYWGQGTQVTVSS | low polyreactivity
38 | QVQLVESGGGLVQAGGSLRLSCAASGYTFFRYAMGWYRQAPGKERELVAAITGSGGRTYYADSVKGRFTISRDNAKNTVYLQMNSLKPEDTAVYYCNRYGSGHSFIYDYWGQGTQVTVSS | high polyreactivity
39 | QVQLVESGGGLVQAGGSLRLSCAASGFTFGYYAMGWYRQAPGKERELVARISDGGSTNYADSVKGRFTISRDNAKNTVYLQMNSLKQEDTAVYYCAADDTRGREEYDYWGQGTQVTVSS | high polyreactivity
40 | QVQLVESGGGLVQEGGSLRLSCAASGRNFDVNAMGWYRQAPGKERELDAAISSGGNTKYSDSVKGRFTISRDKSKNTVYLQMNSLKPVDSAVYYCKADGKAGGDYDYWVQGTQVTVSS | low polyreactivity
41 | QVQLVESGGGLVQAGGSLRLSCAASGRTFNLYAMGWYRQAPGKEREFVAAISYSGDSTYYADSVKGRFTISRDNAKNTVYLQMNSLKPEDTAVYYCNADRLQVTRTYDYWGQGTQVTVSS | low polyreactivity
42 | QVQLVESGGGLVQAGGSLRLICAASGFIFPDYGMGWYRQAPGKERELVAAISRNGVSTYYADSLKRRFTISRDNAKNTVYLQMISLIPEDTAVYYCAARYYRIRRVSKSVYYWGQCTQVTVSS | low polyreactivity
43 | QVQLVDSGGGLVQAGVSLRLSCAASGSTFVGYAIGSYSQAPGKERELVAAISRSGGRTYYADSVKGRFTISRDKAKNTVYLQMNSLKPEDTAVYYCYPYYIASTFDEWGQGTQVTVSS | high polyreactivity

Source: the nanobody polyreactivity screen of Harvey et al. (2022)
